Data published in patent US12709641B2.

Assays:
Settings in all cases: remark: other sources report otherwise
[1] = biological target: wild type tau (Homo sapiens (Human)), P10636; assay: Octet
[2] = biological target: T1, enriched paired helical filament tau protein (ePHF) (human); assay: direct ELISA
[3] = biological target: iPHF (Homo sapiens (Human)), P10636; assay: Octet, antibody on biosensor tips
[4] = biological target: T1, enriched paired helical filament tau …; assay: follow up analysis, method not stated

Kd [1] [nM] | Binder | other results
> 200 | V0050 (antibody, V domains shown) VH: EVQLQQSGPELVKPGASVKIPCRASGYTFTDYNMDWVKQSHGKTLEWIGDINPNNGGTIYNQKFKGKATLTVDKSSSTAYMELRSLTSEDTAVYYCARGRGMGYYALDYWGQGTSVTVSS VL: DIQMTQSPASLSASVGETVTFTCGASENVYGALNWYQRKQGKSPQLLIYGATNLADGMSSRFSGSGSGRQYSLKISSLHPDDVATYYCQNVLTIPWTFGGGAKLEIK | 
> 200 | V0024 (antibody, V domains shown, here or on the partner: phosphorylated residues of pathological tau, sites not stated) VH: QVQLQQPGTELVKPGASVKLSCKASGYTFTRFWMHWVKQRPGQGLEWIGNINPNNGGTDNNERFKSKATLTVDRSSSTAYMQLSSLTSEDSAVYYCARGTGTGAMDYWGQGTSVTVSS VL: DVVMTQTPLSLPVSLGDQASISCRSSQSLVHSNGNTHLYWYLQKPGQSPKLLIYRVSSRFSGVPDRFSGSGSGTDFTLKISRVEAEDLGVYFCFQGTHVPRTFGGGTKLEIK | EC50 [2]: 0.125 nM; Kd [3]: 2.8 nM; selectivity for ePHF over wild type tau [4]: > 100 fold
> 200 | V0026 (antibody, V domains shown) VH: QVQLQQSGPELVKPGASVKISCKASGYSFTDYYINWVKQRPGQGLEWIGWIFPGSDSTYYNEKFKGKATLTVDKSSSTASMLLSSLTSEDSAVYFCARPTVVARDYAMDYWGQGTSVTVSS VL: DVLMTQTPLSLPVSLGDQASISCRSSQSIVYSNGNTYLEWYLQKPGQSPKLLIYKVSNRFSGVPDRFSGSGSGTDFTLKISRVEAEDLGVYYCFQGSHVPYTFGGGTKLEIK | 
> 200 | V0022 (antibody, V domains shown) VH: QVQLQQPGTELVKPGSSVNLSCKASGFTFTRYWMHWVKERPGHGLEWIGNINPNNGGTDFNEKFKNKATLTVHKSSTTVFIQLSSLTSEDSAVYYCARGTGTGAMDYWGQGTSVTVSS VL: DVVMTQTPLSLPVSLGDQASISCRSSQSLVHNNGITYLYWYLQKPGQSPKLLIYRVSNRFSGVPDRFGGSGSGTDFTLKISRVEAEDLGVYFCFQGTHVPRTFGGGTKLEIK | 
> 200 | V0023 (antibody, V domains shown) VH: QVQLQQPGTELVKPGASVKLSCKASGYTFTIFWMHWVKQRPGHGLEWIGKINPNNGGGDYNEKFKSKATLTVDKSSTTAYLQLSSLTSEDSAVYYCARGTGTGAMDYWGQGTSVTVSS VL: DVVMTQTPLSLPVSLGDHASISCRSSQSLVHSNGITHLYWYLQRPGQTPKLLIYRVSNRFSGVPDRFSGSGSGTDFTLKISSVEAEDLGVYFCFQGTHVPRTFGGGTKLEIE | 
> 200 | V0052 (antibody, V domains shown) VH: not shown VL: SIVMTQTPKFLLVSAGDRVTITCKASQSVSNDVAWYQQKPGQSPKLLIYYASNRCTGVPDRFTGSGYGTDFTFTISTVQAEDLAVYFCQQDYRSPLTFGAGTKLELK | 
> 200 | V0027 (antibody, V domains shown) VH: QVQLQQSGPELVKPGASVKISCKASGYTFTEYYLNWMKQRPGQGLEWIGWIFPGRGSTNYNEKFKGKATLTVDKSSSTAYMLLSSLTSEDSAVYFCARPTIVARDYAMDYWGQGTSVTVSS VL: DVLMTQTPLSLPVSLGDQASISCRSSQSIVHRNGNTYLEWYLQKPGQSPKLLIYKVSNRFSGVPDRFSGSGSGTDFTLKISRVEAEDLGVYYCFQGSHVPFTFGSGTKLEIK | 
> 200 | V0031 (antibody, V domains shown) VH: QVQLQQPGTELVKPGASVKLSCKASGYTFTSYWMHWVKQRPGQGLEWIGNIYPSNGGTYYNEKFKSKATLTVDKSSSTAYMQLSSLTSEDSAVYYCARSSVVGRDYAMDYWGQGTSVTVSS VL: DVLMTQTPLSLPVSLGDQASIACRSSQSIVHSNGNTYLEWYLQKPGQSPELLIYKVSNRFSGVPDRFSGSGSGTDFTLKISRVEAEDLGVYYCFQGSHVPYTFGGGTKLEIK | 
> 200 | V0032 (antibody, V domains shown) VH: QVQLKQSGAELVRPGASVKLSCKTSGYTFTDYYIKWVKQRPGQGLEWIARIYPGSGNTYYNEKFKGKATLTAEKSSSTAYMQLSSLTSEDSAVYFCARPAYYSKDYAMEYWGQGTSVTVSS VL: DVLMTQTPLSLPVSLGDQASISCRSSQSIVYTNGNTYLEWYLQKPGQSPKLLIYKVSNRFSGVPDRFSGSGSGTDFTLKISRVEAEDLGVYYCFQGSHVPYTFGGGTKLEIK | 
> 200 | V0004 (antibody, V domains shown) VH: QVQLQQPGAELVKPGASVKLSCKASDYTFTNYWMHWVKQRPGRGLEWIGRIDPNSGGTRYNEKFKNKATLTVDKPSSTAYMHLSSLTSEDSAVYYCAGDFDVWGTGTTVTVSS VL: DIQMTQSPASLSASVGETVTITCRASGNIHNYLAWYQQRQGKSPQLLVYNAKTLPDGVPSRFSGSGSGTQYSLKINSLQPEDFGSYCCQHFWSTPLTFGAGTKLELK | 
> 200 | V0021 (antibody, V domains shown) VH: QVQLQQPGIELVKTGASVKLSCKASGYTFTSNWMHWLKQRPGQGLEWIGNINPNNSETNYNEKFRKKATLTVDKSSSAAYMQLISLTSEDSAVYYCARANYYGGSQFAYWGQGTLVTVSA VL: DVVMTQTPLSLCVSLGDQASISCRSSQSLVHSNGKTYLHWYLQKPGQSPNLLIYKVSNRFSGVPDRFSGSGSGTDFTLKISRVEAEDLGVYFCSQSTHVPFTFGSGTKLEIK | 
> 200 | V0020 (antibody, V domains shown) VH: QVQLQQPGTDLVKPGASVKLSCKASGYTFTSYWMHWLKQRPGQGLEWIGNINPNNSDANYNEKFKSKATLTVDKSSSAAYMQLISLTSEDSAVYYCARANYYGGSQFAYWGQGTLVTVSA VL: DVVVTQTPLSLPVSLGDQASISCRSSQSLVHSNGKTYLHWYLQKPGQSPNLLIYKVSNRFSGVPDRFSGSGSGTDFTLKISRVEAEDLGVYFCSQSTHVPFTFGSGTKLEIK | 
> 200 | V0058 (antibody, V domains shown) VH: not shown VL: DIVMTQSPSSLSVSAGEKVTMSCKSSQSLLSSGNQKNYLAWYQQKPGQPPKLLIYGASTRESGVPDRFTGSGSGTDFTLTISSVQAEDLAVYYCQNDHSHPYTFGGGTKLEIK | 
> 200 | V0057 (antibody, V domains shown) VH: not shown VL: DIVMTQSPSSLSVSAGEKVTMSCKSSQSLLNSGNQKNYLAWYQQKPGQPPKLLIYGASTRESGVPDRFTGSGSGTDFTLTISSVQAEDLAVYYCQNDHSHPYTFGGGTKLEIK | 
> 200 | V0054 (antibody, V domains shown) VH: not shown VL: DIVMTQSPSSLSVSAGEKVTMSCKSSQSLLNSGNQKNYLAWYQQKPGQPPKLLIYGTSTRESGVPDRFTGSGSGTDFTLTISSVQAEDLAVYYCQNDHSHPYTFGGGTKLEIK | 
> 200 | V0055 (antibody, V domains shown) VH: not shown VL: DIVMTQSPSSLSVSAGEKVTMSCKSSQSLLNSGNQKNYLAWYQQKPGQPPKLLIYGASTRESGVPDRFTGSGSGTDFTLTISSVQAEDLAVYYCQNDHSHPYTFGGGTKLEIK | 
 | V00016 (antibody, V domains shown) VH: EVQLQQSGAELVKPGASVKLSCTASGFNIKDYYIHWVKQRTEQGLEWIGRIDPEDGETKYAPKFQGKATIAADTSSNTAYLHLNSLTSEDTAVYYCAREFSYAMDYWGQGTSVTVSS VL: NIMMTQSPSSLAVSAGEKVTMSCKSSQSVLYSSNQKNYLAWYQQKPGQSPKLLIYWASTRESGVPDRFTGSGSGTDFTLTISSVQAEDLAVYYCHQYLSSRTFGGGTKLEIK | Kd [3]: 5.5 nM
